Experimental data from patent US20130096281A1.

Target: [Ag] (UniProt P04626)
Test: yeast display titration (flow cytometry); Lip2prepro leader, Sag1p fusion

In the case of preproA1-Herceptin scFv, the Kd is reported as 2.51 nM.
